Measured values reported in patent publication US20110257092A1 (INDIANA UNIVERSITY RESEARCH AND TECHNOLOGY, published 2011).
Ends that are not written are not given here.

Target: glucagon receptor (UniProt P47871 26-477, limits assumed)
Assay: cell-based or functional assay

Chain of glucagon receptor (P47871 26-477 limits assumed): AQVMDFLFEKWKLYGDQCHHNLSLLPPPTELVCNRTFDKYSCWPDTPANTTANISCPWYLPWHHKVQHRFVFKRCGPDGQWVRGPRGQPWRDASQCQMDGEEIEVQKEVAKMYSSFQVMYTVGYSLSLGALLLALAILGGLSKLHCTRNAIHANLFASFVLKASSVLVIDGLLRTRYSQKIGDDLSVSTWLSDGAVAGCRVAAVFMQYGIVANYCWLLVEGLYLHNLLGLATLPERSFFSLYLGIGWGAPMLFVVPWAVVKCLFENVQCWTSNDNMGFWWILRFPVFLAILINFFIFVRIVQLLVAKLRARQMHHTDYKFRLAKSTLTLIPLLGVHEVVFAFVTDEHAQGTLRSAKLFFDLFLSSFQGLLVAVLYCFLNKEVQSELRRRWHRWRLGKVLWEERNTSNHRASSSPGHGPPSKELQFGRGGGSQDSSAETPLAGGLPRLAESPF

B1: Peptide V (peptide)
peptide: HSEGTFTSDYSKYLDEQAAKEFIC(PEG 20 kDa)WLMNT
modifications: not fully specified (C-terminus)
  glucagon agonism: > 10 fold reduction
